# Test results as given in patent US8507651B2, “Treatment of diseases and conditions mediated by increased phosphorylation” (DMI Acquisition Corp., priority 2002, dated 2013).
# B1: chicken egg yolk phosvitin (dephosphorylated): Phosvitin extracted from the yolks of chicken eggs and dephosphorylated; estimated about 20-50% dephosphorylated (protein, UniProt P02845 1112-1328, looked up)
# Phosvitin: AEFGTEPDAKTSSSSSSASSTATSSSSSSASSPNRKKPMDEEENDQVKQARNKDASSSSRSSKSSNSSKRSSSKSSNSSKRSSSSSSSSSSSSRSSSSSSSSSSNSKSSSSSSKSSSSSSRSRSSSKSSSSSSSSSSSSSSKSSSSRSSSSSSKSSSHHSHSHHSGHLNGSSSSSSSSRSVSHHSHEHHSGHLEDDSSSSSSSSVLSKIWGRHEIYQ
# modifications: Phosvitin partially dephosphorylated
# notes: Phosvitin extracted from the yolks of chicken eggs and dephosphorylated; estimated about 20-50% dephosphorylated
# B2: Sigma phosvitin (untreated): Chicken phosvitin purchased from Sigma Chemical Co., used as received without dephosphorylation (protein, UniProt P02845 1112-1328, looked up)
# Phosvitin: B1 Phosvitin
# modifications: Phosvitin
# notes: Chicken phosvitin purchased from Sigma Chemical Co., used as received without dephosphorylation
# Tested on: IL-8 release by Jurkat cells
# Experiment: Inhibition of IL-8 release from PMA/ionomycin-stimulated Jurkat cells, IL-8 ELISA of supernatants (Example 1)
# Format: cell-based, human
# Settings: PMA and ionomycin; for IL-8 / Percent Inhibition Of IL-8 Release: 24 hours; for IL-8: positive control 1119.2; for Percent Inhibition Of IL-8 Release: vs positive control; for Inhibition of IL-8 release as compared to the positive control (in words): summary of Table 1
# Experimental: Jurkat cells (American Type Culture Collection (ATCC), Rockville, Md.) were cultured (1×10^6 cells per 0.5 ml culture) in IMDM culture medium (ATCC) containing insulin transferrin selenite solution (ITSS; Sigma) with and without phosvitin or BSA at 37° C., 5% CO2, for 30 minutes. Then, phorbol-12-myristate-13-acetate (PMA; […]; Sigma) and ionomycin ([…]; Sigma) were added to stimulate the cells, and the cells were further cultured at 37° C., 5% CO2, for 24 hours.
# Cell culture supernatants were analyzed for IL-8 content by ELISA. The IL-8 ELISA was performed as follows. Anti-human IL-8 antibody (Pierce Endogen, Rockford, Ill.; catalogue number M801-E, lot number CK41959) was diluted to 1 μg/ml in phosphate buffered saline, pH 7.2-7.4, and 100 μl of the diluted antibody was added to each well of Nunc Maxisorb ELISA strip plates. The plates were incubated overnight at room temperature. The liquid was aspirated from the wells, and the plates were blotted on a paper towel. Then, 200 μl of assay buffer (phosphate buffered saline, pH 7.2-7.4, containing 4% BSA) were added to each well, and the plates were incubated for 1 hour at room temperature. The liquid was aspirated from the wells, and the wells were washed 3 times with wash buffer (50 mM Tris, 0.2% Tween-20, pH 7.9-8.1) and were then blotted on a paper towel. Standards and supernatant samples (50 μl/well; standards were diluted in assay buffer) were added to the wells, and the plates were incubated for 1 hour at room temperature with gentle shaking. The liquid was aspirated, the wells were washed 3 times with wash buffer, and the plates were then blotted on a paper towel. Then, 100 μl of biotin-labeled anti-human IL-8 (Pierce Endogen, Rockford, Ill.; catalogue number M802-E, lot number CE49513), diluted to 60 ng/ml in assay buffer, were added to each well. The plates were incubated for 1 hour at room temperature, the liquid was aspirated, the wells were washed 3 times with wash buffer, and the plates were blotted on a paper towel. Then, 100 μl of HRP-conjugated streptavidin (Pierce Endogen, Rockford, Ill.; catalogue number N100) in assay buffer, were added to each well. The plates were incubated for 30 minutes at room temperature, the liquid was aspirated, the wells were washed 3 times with wash buffer, and the plates were blotted on a paper towel. Finally, 100 μl of TMB substrate solution (Pierce Endogen, Rockford, Ill.; catalogue number N301) were added to each well. The plates were incubated for 30 minutes at room temperature. The reaction was stopped by adding 100 μl/well of 0.18 M H2SO4. The optical densities at 450 mu and 530 nm were read on an ELISA plate reader and the difference (OD 450-OD 530) calculated.
Molecule,IL-8 (1.0 mg/ml sample) [pg/mL],Percent Inhibition Of IL-8 Release (1.0 mg/ml sample) [%],Inhibition of IL-8 release as compared to the positive control (in words),IL-8 (0.1 mg/ml sample) [pg/mL],Percent Inhibition Of IL-8 Release (0.1 mg/ml sample) [%],IL-8 (0.5 mg/ml sample) [pg/mL],Percent Inhibition Of IL-8 Release (0.5 mg/ml sample) [%]
"Sigma BSA (untreated): Bovine serum albumin from Sigma (ELIS grade, low fatty acid and IgG), used as received [reference compound]",1048.1,6.3,did not significantly inhibit the release of IL-8,,,,
B1,686.9,38.6,inhibited IL-8 release as compared to the positive control in a dose-dependent fashion,1024.7,6.4,830.4,25.8
B2,1153.6,0,did not significantly inhibit the release of IL-8,,,,
